# Test results as given in US20260116991A1 (HAINAN SIMCERE ZAIMING PHARMACEUTICAL, published 2026).
# How the values were obtained:
# [1] = target: biotinylated labeled human GPC3 protein (produced in-house) (human, UniProt P51654 25-559, limits assumed, biotinylated (Dojindo, Cat. No. LK03); sites not stated); assay: ELISA, biotinylated human GPC3 protein
# [2] = target: T1, human GPC3 on CHO-K1-human GPC3 cells (CHOK1-hGPC3.2B5) (human, UniProt P51654 25-554); assay: FACS, CHOK1-hGPC3.2B5 cells;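 note: flow cytometry of humanized antibodies binding to the cells over one hour in the cold, read as cell mean fluorescence intensity, with EC50 obtained by curve fitting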
# T1 construct: whole, on cells
Binder,OD450 at 0.0008 nM [1] [OD450],OD450 at 0.004 nM [1] [OD450],OD450 at 0.02 nM [1] [OD450],OD450 at 0.11 nM [1] [OD450],OD450 at 0.53 nM [1] [OD450],OD450 at 2.67 nM [1] [OD450],OD450 at 13.33 nM [1] [OD450],OD450 at 66.66 nM [1] [OD450],EC50 [2] [nM],Max MFI [2] [MFI]
"hAb001H2L1a (antibody, human IgG1, V domains shown, Humanized F2.169.2; VH H2 + VL L1a; expressed as human IgG1) VH: EVQLVESGGGLVQPGGSLRLSCAASGFSFNTNAMNWVRQAPGKGLEWVGRIRSKSNNYATYYADSVKDRFTISRDDSKSSLYLQMNSLKTEDTAVYYCVRDGYYVLFAYWGQGTLVTVSS VL: DIVMTQTPLSLPVTPGEPASISCRFSQSIVNSDGNTYLEWFLQKPGQSPQLLIYKVSNRFSGVPDRFSGSGSGTDFTLKISRVEAEDVGVYYCFQGSHVPFTFGQGTKLEIK",0.096,0.141,0.437,1.53,2.27,2.42,2.57,2.58,6.17,2550
"hAb007LH2L1 (antibody, human IgG1, V domains shown, Humanized F3.81.19; VH H2 + VL L1; expressed as human IgG1) VH: EVQLVQSGAEVKKPGSSVKVSCKASGYTFTDYEMHWVRQAPGQGLEWMGTIDPETGNTAYNQKFKGRVTITADKSTSTAYMELSSLRSEDTAVYYCTRPYSLTYWGQGTLVTVSS VL: DIVMTQTPLSLPVTPGEPASISCRSSQSFVHSNGDTYLQWYLQKPGQSPQLLIYKVSNRFSGVPDRFSGSGSGTDFTLKISRVEAEDVGVYYCFQGSHVPYTFGQGTKLEIK",0.121,0.233,0.654,1.72,2.26,2.26,2.33,2.32,6.56,6190
"hAb003LH3L1 (antibody, human IgG1, V domains shown, Humanized F2.154.1; VH H3 + VL L1; expressed as human IgG1) VH: EVQLVQSGAEVKKPGSSVKVSCKASGYRFTDYEMHWVRQAPGQGLEWMGTIDPETGNTAYTQKFMDRVTLTADKSTSTAYMELSSLRSEDTAVYYCTRGYSFTYWGQGTLVTVSS VL: DIVMTQTPLSLPVTPGEPASISCRSSQNIVHSNGNTYLQWYLQKPGQSPQLLIFKVSNRFSGVPDRFSGSGSGTDFTLKISRVEAEDVGVYYCFQGSHVPFTFGQGTKLEIK",0.137,0.297,0.915,1.89,2.26,2.56,2.3,2.39,1.08,5040
"hAb003LH1L1 (antibody, human IgG1, V domains shown, Humanized F2.154.1; VH H1 + VL L1; expressed as human IgG1) VH: EVQLVQSGAEVKKPGSSVKVSCKASGYTFSDYEMHWVRQAPGQGLEWMGTIDPETGNTAYTQKFMDRVTITADKSTSTAYMELSSLRSEDTAVYYCTRGYSFTYWGQGTLVTVSS VL: DIVMTQTPLSLPVTPGEPASISCRSSQNIVHSNGNTYLQWYLQKPGQSPQLLIFKVSNRFSGVPDRFSGSGSGTDFTLKISRVEAEDVGVYYCFQGSHVPFTFGQGTKLEIK",0.16,0.427,1.19,2.15,2.5,2.47,2.57,2.49,1.42,5220
"hAb003LH2L1a (antibody, human IgG1, V domains shown, Humanized F2.154.1; VH H2 + VL L1a; expressed as human IgG1) VH: EVQLVQSGAEVKKPGSSVKVSCKASGYRFTDYEMHWVRQAPGQGLEWMGTIDPETGNTAYTQKFMDRVTITADKSTSTAYMELSSLRSEDTAVYYCTRGYSFTYWGQGTLVTVSS VL: DIVMTQTPLSLPVTPGEPASISCRSSQNIVHSDGNTYLQWYLQKPGQSPQLLIFKVSNRFSGVPDRFSGSGSGTDFTLKISRVEAEDVGVYYCFQGSHVPFTFGQGTKLEIK",0.088,0.146,0.423,1.18,1.9,2.14,2.18,2.34,11.6,1770
"hAb003LH2L1b (antibody, human IgG1, V domains shown, Humanized F2.154.1; VH H2 + VL L1b; expressed as human IgG1) VH: EVQLVQSGAEVKKPGSSVKVSCKASGYRFTDYEMHWVRQAPGQGLEWMGTIDPETGNTAYTQKFMDRVTITADKSTSTAYMELSSLRSEDTAVYYCTRGYSFTYWGQGTLVTVSS VL: DIVMTQTPLSLPVTPGEPASISCRSSQNIVHSNRNTYLQWYLQKPGQSPQLLIFKVSNRFSGVPDRFSGSGSGTDFTLKISRVEAEDVGVYYCFQGSHVPFTFGQGTKLEIK",0.171,0.372,1.05,1.97,2.44,2.39,2.5,2.6,0.584,5000
"hAb006LH1L1 (antibody, human IgG1, V domains shown, Humanized F3.38.7; VH H1 + VL L1; expressed as human IgG1) VH: EVQLVQSGAEVKKPGSSVKVSCKASGYTFSDYEIHWVRQAPGQGLEWMGAIDPKTGNTAYNQKFMGRVTITADKSTSTAYMELSSLRSEDTAVYYCTRYFSFAYWGQGTLVTVSS VL: DIVMTQTPLSLPVTPGEPASISCRSSQTFVHSNGNTYLQWYLQKPGQSPQLLIYKVSNRFSGVPDRFSGSGSGTDFTLKISRVEAEDVGVYYCFQGSHVPYTFGQGTKLEIK",0.117,0.365,1.05,1.9,2.39,2.36,2.42,2.43,0.906,4780
"hAb003LH1L1a (antibody, human IgG1, V domains shown, Humanized F2.154.1; VH H1 + VL L1a; expressed as human IgG1) VH: EVQLVQSGAEVKKPGSSVKVSCKASGYTFSDYEMHWVRQAPGQGLEWMGTIDPETGNTAYTQKFMDRVTITADKSTSTAYMELSSLRSEDTAVYYCTRGYSFTYWGQGTLVTVSS VL: DIVMTQTPLSLPVTPGEPASISCRSSQNIVHSDGNTYLQWYLQKPGQSPQLLIFKVSNRFSGVPDRFSGSGSGTDFTLKISRVEAEDVGVYYCFQGSHVPFTFGQGTKLEIK",0.082,0.115,0.334,1.12,1.97,2.27,2.21,2.45,45.1,2070
"hAb003LH1L1b (antibody, human IgG1, V domains shown, Humanized F2.154.1; VH H1 + VL L1b; expressed as human IgG1) VH: EVQLVQSGAEVKKPGSSVKVSCKASGYTFSDYEMHWVRQAPGQGLEWMGTIDPETGNTAYTQKFMDRVTITADKSTSTAYMELSSLRSEDTAVYYCTRGYSFTYWGQGTLVTVSS VL: DIVMTQTPLSLPVTPGEPASISCRSSQNIVHSNRNTYLQWYLQKPGQSPQLLIFKVSNRFSGVPDRFSGSGSGTDFTLKISRVEAEDVGVYYCFQGSHVPFTFGQGTKLEIK",0.147,0.371,1.11,2.1,2.35,2.5,2.44,2.65,1.2,5010
"hAb001H2L1b (antibody, human IgG1, V domains shown, Humanized F2.169.2; VH H2 + VL L1b; expressed as human IgG1) VH: EVQLVESGGGLVQPGGSLRLSCAASGFSFNTNAMNWVRQAPGKGLEWVGRIRSKSNNYATYYADSVKDRFTISRDDSKSSLYLQMNSLKTEDTAVYYCVRDGYYVLFAYWGQGTLVTVSS VL: DIVMTQTPLSLPVTPGEPASISCRFSQSIVNSNANTYLEWFLQKPGQSPQLLIYKVSNRFSGVPDRFSGSGSGTDFTLKISRVEAEDVGVYYCFQGSHVPFTFGQGTKLEIK",0.154,0.287,0.787,1.94,2.46,2.52,2.53,2.67,0.455,3370
"hAb003LH2L1 (antibody, human IgG1, V domains shown, Humanized F2.154.1; VH H2 + VL L1; expressed as human IgG1) VH: EVQLVQSGAEVKKPGSSVKVSCKASGYRFTDYEMHWVRQAPGQGLEWMGTIDPETGNTAYTQKFMDRVTITADKSTSTAYMELSSLRSEDTAVYYCTRGYSFTYWGQGTLVTVSS VL: DIVMTQTPLSLPVTPGEPASISCRSSQNIVHSNGNTYLQWYLQKPGQSPQLLIFKVSNRFSGVPDRFSGSGSGTDFTLKISRVEAEDVGVYYCFQGSHVPFTFGQGTKLEIK",0.151,0.376,1.03,1.98,2.43,2.47,2.53,2.54,1.07,5140
